The target in the experiment is T1, SidJ^[change] (SidJ 59–851) (L. pneumophila, UniProt Q5ZTK6 59-851).
T1 sequence: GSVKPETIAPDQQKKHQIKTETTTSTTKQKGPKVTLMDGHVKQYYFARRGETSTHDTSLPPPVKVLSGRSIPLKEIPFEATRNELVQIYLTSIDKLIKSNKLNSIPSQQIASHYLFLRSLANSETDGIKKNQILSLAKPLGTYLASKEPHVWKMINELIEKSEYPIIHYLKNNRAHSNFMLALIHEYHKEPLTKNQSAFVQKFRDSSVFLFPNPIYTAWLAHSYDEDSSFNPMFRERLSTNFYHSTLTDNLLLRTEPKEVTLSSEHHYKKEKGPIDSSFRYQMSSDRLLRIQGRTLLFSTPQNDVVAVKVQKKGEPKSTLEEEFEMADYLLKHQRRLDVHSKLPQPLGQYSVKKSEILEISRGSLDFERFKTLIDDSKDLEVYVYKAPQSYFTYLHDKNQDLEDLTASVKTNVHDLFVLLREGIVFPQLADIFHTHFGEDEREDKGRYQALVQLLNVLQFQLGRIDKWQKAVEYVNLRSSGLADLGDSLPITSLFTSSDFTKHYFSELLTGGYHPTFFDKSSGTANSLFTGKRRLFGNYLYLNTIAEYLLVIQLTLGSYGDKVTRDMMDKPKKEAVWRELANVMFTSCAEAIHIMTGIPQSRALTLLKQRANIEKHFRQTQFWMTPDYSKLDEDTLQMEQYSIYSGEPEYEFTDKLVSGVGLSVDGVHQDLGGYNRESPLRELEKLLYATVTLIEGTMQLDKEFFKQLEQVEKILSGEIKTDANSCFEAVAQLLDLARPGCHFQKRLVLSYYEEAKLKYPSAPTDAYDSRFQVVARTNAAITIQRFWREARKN
The experiment in a line: crystal structure.

B1: yeast CaM (yCaM) (natural protein)
chain: not shown
Take B1: the binding result is listed as “binds”.

The values above are taken from article PMC6767918 (Science (New York, N.Y.), 2019).
